According to a protein production outcome set (Wang et al. 2014):

Test: label from the status in PepcDB records
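Note: failed if final PepcDB status was selected cloned or expressed and not failed if soluble or beyond.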

Protein production, failed:
MRLTVDQALAQAIAAHRSGQLQDAERLYRAILDAAPGHADANHNLGVLAVGVGKPQAGLSFLKAALEINPAQGQFWVSYIDALIAAGLPAAARDHLEQAKRRGLTGDAVERLEKRLDPASQPPQALLDSVVAQYRSGNLAAAESQAHALTLSFPNHELGWKVLGAVFSVTGRSEESLASMRQALSLNPQDAETFKNLAILLLKLKRAEEAEAACRSALALAPDYPQVHLTLGNALIDLARAAEAEESFRQAIRLKPDYSEAHCNLGCALKLSGRLTEAETCFRRAIQLNPADAQAHNNLGDVFKDLGRFADAEAFYRAAIGLKPEYLEAHSNLLLCLNYFETSSPDTYLAEAKQYGSVASAAATPKFSAWSIQPEPRRLRVGFISGDLNSHPVGYFSESVFQHLDRDRFELFAFPTTPKTDALTSRISPFFAGWCPIFGMDDHAAATAIHTQGVHVLVDLSGHTADNRLPVFAFRPAPVQASWLGYFATTGLPEMDYFLGDRYMVTETEQQRFTETLWRLPETWLCLAPHERSIPINPPPVLTNGFMTFGCLGNLSKMNGEVVALWSQILRAVPESKLLLKAKPFVDAQVVADIQARFAREGVSSDRLILEGPSSRAEYFETYNRIDLVLDTFPYPGGTTSVDALWMGVPVLTLAGDRFLARLGESIARNAGQSAWVARDRADYLAKAVAFASVRDVAHDRPALRRSVLTTPLFDPERFARDFGDTLWGMWSQGRSHPLRKDAPCRS
MRLTVWTYEGPPQVGAMRVATAMRGVHYVVHAPQGDSYADLLFTMIERRPGRPAVSYTSFQARDLGTDTAALFKTAAADAVARFQPEALLVGSSCTGELIQDDPGGLAKALGLSIPVIPLELPSYQRKENWGAAETFYRLVRTMAGPAAPAPGTPRAPRPAGQRPRCNLLGPTALGFRHRDDVQAVVALLGRMGVDVAVVAPLGASPADLARLGEADFNVVLYPEIADTAVRWLERAFGQPSVRTVPIGVGATRAFIAEVAAVAGVDPAPALAEESLRLPWWSRSVDSTYLTGKRVFIFGDATHAVAAARVATEEFGFEVVGLGTYAREYARELRACAGALGLEALITDDYLDVEAAIADAHPDLVLGTQMERHIAKRLGVPCAVISAPVHVQDFPARTAPQMGFDGANVLFDTWVHPLMMGLEEHLLMMFRDDFEFHGDAAPSHLSAHRPTGEAVGDAVGEPPAAPRDQAAPAATLDGSAAQSDPARTTPPGAPSWEDSAEKELRKVPFFVRGKARRNTERFAAERGLASISVETLYDAKAHFGR
MRMEDEDYNTSISYGDEYPDYLDSIVVLEDLSPLEARVTRIFLVVVYSIVCFLGILGNGLVIIIATFKMKKTVNMVWFLNLAVADFLFNVFLPIHITYAAMDYHWVFGTAMCKISNFLLIHNMFTSVFLLTIISSDRCISVLLPVWSQNHRSVRLAYMACMVIWVLAFFLSSPSLVFRDTANLHGKISCFNNFSLSTPGSSSWPTHSQMDPVGYSRHMVVTVTRFLCGFLVPVLIITACYLTIVCKLQRNRLAKTKKPFKIIVTIIITFFLCWCPYHTLNLLELHHTAMPGSVFSLGLPLATALAIANSCMNPILYVFMGQDFKKFKVALFSRLVNALSEDTGHSSYPSHRSFTKMSSMNERTSMNERETGML
MRMNILLAFKAEPDAGMLAEKEWQAAQGNSGPDVSLLRSLLGADEQAAAALLLAQRKNGTSMSLTALSMGDERALHWLRYLMALGFEDAVLLETAADLRFAPEFVARHIAEWQYQNPLELIITGCQSSEGQNGQTPFLLAEMLGWPCFTQVERFTLDAPFITLEQRTENGLRCCRVRLPAVIAVRQCGEVALPVPGMRQRMAAGKAEIIRKTVAAEMPAMQCLQLARAEQRRGATLIDGQTVAEKAQKLWQYYLCQRMQP
MRNGILYAILLYVFMFVLWFCFAYFIDTSTTIFNIPLWFFLSGILFPSIIFFWFVFLF
MRNKQSLVFLASSLFLLILAPITSEAISNPSTNINEVNREIVEESANDQATSAPSHSETLEQEPSLETTTTTDNHPAETDQSTATLEPSEQQKDDGTSATESVIVEPQPRMLAAPYATSLPDDPNIIPIDKVFQEPIGNATSILEGGKLLQLNPAVKSQKGAIWSKKPISLLSDFTFKSYLYLGNEYANAGDGMTFTLTNDPRMSTTPQEVIGSPGMGIGAYSTKAGQPYVRNALSIEFDTYKNTGSSNRMDREISQDKGNGHLAFVTPKANNNNYTGEHSGVTVAPTYLSNGTWRMLTVHWNAATKALTYDLEGVGTNTYVVSDLNAQFGATTVYWGFTSSTGGKYQENALAMTQIPTNVTSQAALSVNGQEFSSAVEAVKNDQVRLRNTLNIDNDFIEDRQPQVSIDLPDELAYEENSLTIDGKKVAAKDLTQTGNHLTIALNDYLVLKKDMMIELKTTLQDNTPEKVLTMNFDYYEEGTLLQKSNNVTITIPKPTEKTVTVFYKDAEGKDIAPPKSVTGKIGAPYQEKPLDISGYVFTKDSGNAEGTMTEETKDIYFYYRLGELYFKEAPKQITFGTEKIRNQPLIKLGHPTEGLKVVDERNANNWRLQLKQTQPLTNDSIVMPDVFSFVSTAGSSQITNEAITLLESNQKGETDLTALLDESKQQGIQINVPVAYQRVGTFKARLSWALEDVPGN
MRNVLITGATSGIGLSLVEKYLQAGDKVYACGRNFQAYLKSSSLIDAEKSDKLVKIVFDMNHHDAIIDVLTEVESLDIAILNAGTCEYIDDAMGFDAELFERVINTNVISIGYCLQALLPKMKQKGHLALMGSSAAFVPFQRAEAYGASKAAIHYLAQSLQLDIPKERLTISVIAPGFVKTPLTDKNDFPMPMLIEPDKAADHIINGINNNKQHIHFPFPFTRFLILMGALPSCIWQWMALRMKRK
MRPIKLLPDGLISQIAAGEVIERPASVLKELLENAIDAGTTDISVNIAQGGLKLIRVTDNGGGISGEELPLALTRHATSKIASQEDLYRITSLGFRGEGLASIASVSNLLLISHQPGGKHAWQIRSEGIRVMQPEPSSHAAGTTVEVRDLFFNLPARRKFLKTEATEFAHCEEIIRRMALSHAGIAFTLRHNGNLRGHWQSAEAAVRIKTVLGEEFTRSAAWIDERSAGIGLQGMLALPAYSRAARDMQYFFVNGRFVRDKLITHALREAYRDVLHLDRHAAFVLYLDIDPEQVDVNVHPTKTEIRFREARAIHQFIYHGVSKALSLPRSGTELSQSSSQLMADDIVPPAEKRVPAAPMLNYPRQTGLPSEMIAQPFNFYQVLSGSESDSTATQNPFRQTGAGESNEHPALPPLGFALGQLHGVYILAQNWKGLVIVDMHAAHERIVYEQLKLQMDEQTLSAQRLLIPVTFHADSLDIATAEENQSLLQQLGFEVTVLTATTLAVRAVPAILQDADTEKLVCNVLDEIRNGDPGQLLAARRNELLATMACHGAVRANRPLTLIEMNELLRKMEVTERSDQCNHGRPTWFEISLAELDKMFMRGK
MRPMASELTTFVLIFGTLLFVFGLFSRKIEGTVVTIQMIFLAAGILLSPIGLNLISLSPRSGLVLGVIKVALVLTFFSDASLIGLHSLFLKERLSVRLLFLGLSLTICLGTVFAALLFADITFIDAILLGIILAPTDASLAQKVVEERQVPTLIRNGLIIESGLNDGAVMPLFIFVVALEAVEKLNRPLGTFLAIALEQIGFGIFVGIIIGLVGGWLFSRAFKAGSMSEVYYRTEFVALALISWLVADGVGGNGFIAAFIAGLATRIEDRQVTEEEVILLPRAEGNVLNLAVLFILGVMSAEYLPLVDLKIFAYAVLSLTVVRMVPVTISLIGSHLNIKTGLFMGWFGPRGLASIVLMLITVERIEGIRVSGTIGLAVITTVIISVFAHGITAGPVSNWYARIIATLPPDAPEKESVEELTALQGIETTENIHKEPY
MRPRPDAALAMSSGPPAARKPGVVQPALLNMSAWLRPEPGLTVVTPLVRALVLISAFSPQERWLGNGQLAQRTGLPPSTVSRIAQSLVHLGYLLHDGAERKYRLAPAVLGLGYAAIAHSAIQGLAGERMAAFARQHKVHVCLAARDRLDLVVLECRRSLECPVALPLHVGMRVGIAQSPMGWSMLAALPELERCYLLDNVERRMARDWSRLRRRVWEGMAQVGETGYCTSIGEWNPELGALATPVLLEGSSPFVLACIGTSQTMTRARVARELGPRLLAMREALQTEFNVIGH
MRPTPYLAPIPVRGRISRPQPKGLPVINMGYNELPYPPLPAIRAAMEETAERAQSYGSPHCDALRDALGAAHGLDPEQIVCGNGSEELLDVIARCFARPGDEILISEFGYIQFALTANRVGATLVKARERDNTSDVDALLAAVSEHTRLLFLANPNNPTGTMLEIDELSRLARDLPAQVVLVLDLAYGEFAAPDYCAAVHSLAANHENIVVTRTFSKAYGLAGARVGWCHAPAWMVPVLYAARGMGTVNALAQAGAVAGLADPAAIQERVDEIVSERARLTGALGQLGLVVTPSRTNFLMARFREGDAARTEALVEHLFEDAGIVVNRTREAGLEAFFRFSLSLPAHNDLLLDSIRRFIGQG
MRQSCLMTEQLQDIKTLIEQGDTERAIHALTNFIRNDAHVNDEPYYLLGNAYRKMGDWQQALNNYLEAIERNPESPAVSARNMIMNILNFYNKDMYNQ
MRQYMRTFLLVAVIFVFGFSIRMLNAGYDDPLYTDDDGLQYFQESDSYYNYRLTENLAIRGIPGDAVIGGKIWDLHSYYPPGVPLDYPAGILLLAVILHAITGVIAPVSLRAVCLIMPPLLAPLAGVICFFTVKRFQGDIPAFIAGLLLVSAPFYLVKTVYGLYDTDMLILTLSMAVLFLFIEADAREVNRVPLSAIGGFILFLFSITWSGWQVMFYVTLVTFIILILTSGSRKPLRNILGNIPTGLHGSVYPFNLFNHLELIKLIMTPLHIHDLVDKSIWYPWPDSYTTVAELQPAYMDKVLGHISPALTVLGAAGIPAYYMLYRRKGSVGLPVIFISVWIATGALMLLEGIRFVMILIAPLSVSAGIFTGILLDCSRKFRFRWIKGVLFILIIFTVSAQLAISGNMVADLKPGYNDYFEESAHWIAENTPSDAVIITEWSYGHFYASEADRPVVYDGRLAYIETLPARGVWYGSSMDPEIPTTARDYWINLSLSSENRTLSLNILRMLANSGDDAYILLKNQTGSEVQAYRIMNEILGLNRESAMDVLMHRYGFSESEALRILNMTHPMTSRKIVVVVPEKMIGLIASKGDSGDMPAGTYSLIRLKDDVIEEEIINSSGNVTVLETTDGSYRINRKYRKSLLLELIMGVNDENFSLVYRNKQIKVYIINS
MRQYPRWYYDEFKQSGADYADIEEVNTYDLRMQNLRNIENESNRIRELLKLKKSDVVLEIGTGTGELALNISAHCKQVIAIDVSKMMINFARRKAESQNKTNIQFYNAGFLTYENHDELFDVIVTQLALHHLPDYWKMMALRRIYGMLKEEGKFYLHDVVFPSSIQNYDSYFDKIITDLEISAGDKIAEETEIHIKEEFSTLDWVMEGLLTGVGFYIEYIKYDGFMASYICKK
MRRAAGKPRARRNTACHAAGILKKYPSVSALGCTFHDARQTSRCDENDKTNETMSSALLLVPDFSLILIGWLLVRYTPFDRGFWAGVERLVYFVLFPALLLQSTNSAKFDFSSTSAMLGLALLTMVFGMATGYLVKWVLRPAPADFASGLQTAFRFNSYIGLALAARLGNGEGLALMALVVGVTVPLCNVVAVWALAKHGEARVLRELVRNPLILATATGLVTNLLGLHPPEVVAMTLNRLGSASTALGLMTVGAGLQMSGATGTAGPMAWWSGVKLLAMPCFAWLVGKYLPLTPLQYQIVVVYASLPTASSSYILAVRMGGNGPMVAATISAMTVVAIVTTPVWLSLVS
MRRCFSKITDCHLGFKNSNFLLVGSEVGSGSVTRTITTTTSERLFSSSYAAHQVDQIKDNPVSDMLIDKFGRLHTYLRISLTERCNLRCQYCMPSEGVELTPKPQLLSQSEIVRLAGLFVSAGVNKIRLTGGEPTVRKDIEEICLQLSSLKGLKNLAITTNGITLAKKLPRLKECGLDSLNISLDTLVPAKFEFLTRRKGHDRVMKSIDTAIELGYNPVKVNCVIMRGLNDDEICDFVELTRDKPINVRFIEFMPFDGNVWNVKKLVPYAEVMDKVVKRFPSIKRMQDHPTETAKNFTIDGHCGSVSFITSMTEHFCAGCNRLRLLADGNFKVCLFGPSEVSLRDPLRSGADDEALREIIGAAVKRKKAAHAGMLDIAKTANRPMIHIGG
